Source: US20250019440A1 (Zymeworks, published 2025)
Blank lines part the entries; values can stand above or below the binder they belong to.

Legend:
CD3 on T cells [1] = biological target: T1, CD3 on T cells (Homo sapiens (Human), UniProt P07766 23-207; P04234 22-171; P09693 23-182); assay: cell-based or functional assay
CD3 on T cells [2] = biological target: T1, CD3 on T cells; assay: cell-based or functional assay; remark: listed apart in the source
Human CD3 (recombinant) = Human CD3 (recombinant) (human); assay: SPR, CD3 amine-coupled, variant as analyte, 1:1 model
Chain of Human CD3 (recombinant) (human) (chain, as listed by the source): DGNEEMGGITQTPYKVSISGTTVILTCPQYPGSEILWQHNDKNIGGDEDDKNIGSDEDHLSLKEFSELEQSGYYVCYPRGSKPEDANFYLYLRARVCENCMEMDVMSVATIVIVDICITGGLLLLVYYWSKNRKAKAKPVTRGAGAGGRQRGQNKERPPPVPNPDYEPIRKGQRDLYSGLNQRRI

Human PD-L1 = biological target: T2, Human PD-L1 (human, UniProt Q9NZQ7 19-239); assay: SPR, PD-L1 amine-coupled, variant as analyte
T2 construct: Amine-coupled to a CM5 chip for SPR; also called recombinant human PD-L1
T2 sequence (Q9NZQ7 19-239 limits assumed): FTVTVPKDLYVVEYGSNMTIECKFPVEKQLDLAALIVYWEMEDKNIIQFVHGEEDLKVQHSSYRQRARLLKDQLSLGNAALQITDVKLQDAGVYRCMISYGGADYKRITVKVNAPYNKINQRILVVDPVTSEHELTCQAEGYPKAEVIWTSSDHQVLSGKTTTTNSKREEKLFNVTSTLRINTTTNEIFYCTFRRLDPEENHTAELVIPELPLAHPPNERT

T1 sequence (P07766 23-207 limits assumed, chain 1 of 3): as the sequence (chain, as listed by the source) above
T1 sequence (P04234 22-171 limits assumed, chain 2 of 3): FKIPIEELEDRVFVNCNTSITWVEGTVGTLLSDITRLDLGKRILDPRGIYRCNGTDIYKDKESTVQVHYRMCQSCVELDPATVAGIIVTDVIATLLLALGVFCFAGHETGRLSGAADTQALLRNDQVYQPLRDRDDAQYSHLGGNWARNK
T1 sequence (P09693 23-182 limits assumed, chain 3 of 3): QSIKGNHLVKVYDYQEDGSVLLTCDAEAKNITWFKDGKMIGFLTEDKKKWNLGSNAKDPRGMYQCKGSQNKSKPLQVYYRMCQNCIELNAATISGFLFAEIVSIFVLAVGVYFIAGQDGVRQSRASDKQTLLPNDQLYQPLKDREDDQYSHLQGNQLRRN

B2: v39001 (bispecific) (other)
heavy chain 1 (H1): EVQLVESGGGLVQPGGSLRLSCAASGVTFNYYGMSWIRQAPGKGLEWVASITSSGGRIYYPDSVKGRFTISRENTQKTLYLQMNSLRAEDTAVYYCTLDGRDGWVAYWGQGTLVTVSSASTKGPSVFPLAPSSKSTSGGTAALGCLVKDYFPEPVTVSWNSGALTSGVHTFPAVLQSSGLYSLSSVVTVPSSSLGTQTYICNVNHKPSNTKVDKKVEPKSCDKTHTCPPCPAPEAAGGPSVFLFPPKPKDTLMISRTPEVTCVVVSVSHEDPEVKFNWYVDGVEVHNAKTKPREEQYNSTYRVVSVLTVLHQDWLNGKEYKCKVSNKALPAPIEKTISKAKGQPREPQVYVYPPSRDELTKNQVSLTCLVKGFYPSDIAVEWESNGQPENNYKTTPPVLDSDGSFALVSKLTVDKSRWQQGNVFSCSVMHEALHNHYTQKSLSLSPGGGGGSGQVQLVESGGGLVQPGGSLRLSCSVSGIDLSSNPMIWVRQAPGKGLQYIGIIDTDGSTYYADWAKGRFTISKDSTTVYLQINSPRAEDTAVYYCARRLHGSSNGYYDDLWGQGTLVTVSSGGGGSGGGGSGGGGSGGGGSDGQMTQSPSSVSASVGDRVTITCQASQSIYSYLSWYQQKPGQRPKLLIYKASTLASGVPSRFSGSGSGTDFTLTISSVQPEDFATYYCQQGYTVTNVDKNTFGGGTKVEIK
light chain (L1): NFMLTQPHSVSESPGKTVTISCKRNTGNIGSNYVNWYQQHEGSSPTTIIYRNDKRPDGVSDRFSGSIDRSSKSASLTISNLKTEDEADYFCQSYSSGFIFGGGTKLTVLGQPKAAPSVTLFPPSSEELQANKATLVCLISDFYPGAVTVAWKADSSPVKAGVETTTPSKQSNNKYAASSYLSLTPEQWKSHRSYSCQVTHEGSTVEKTVAPTECS
heavy chain 2 (H2): NPPTFSPALLVVTEGDNATFTCSFSNTSESFVLNWYRMSPSNQTDALAAFPEDRSQPGQDARFRVTQLPNGRDFHMSVVRARRNDSGTYLCGAASLAPKAQIKESLRAELRVTEGGGGSGQVQLVESGGGLVQPGGSLRLSCSVSGIDLSSNPMIWVRQAPGKGLQYIGIIDTDGSTYYADWAKGRFTISKDSTTVYLQINSPRAEDTAVYYCARRLHGSSNGYYDDLWGQGTLVTVSSGGGGSGGGGSGGGGSGGGGSDGQMTQSPSSVSASVGDRVTITCQASQSIYSYLSWYQQKPGQRPKLLIYKASTLASGVPSRFSGSGSGTDFTLTISSVQPEDFATYYCQQGYTVTNVDKNTFGGGTKVEIKAAEPKSSDKTHTCPPCPAPEAAGGPSVFLFPPKPKDTLMISRTPEVTCVVVSVSHEDPEVKFNWYVDGVEVHNAKTKPREEQYNSTYRVVSVLTVLHQDWLNGKEYKCKVSNKALPAPIEKTISKAKGQPREPQVYVLPPSRDELTKNQVSLLCLVKGFYPSDIAVEWESNGQPENNYLTWPPVLDSDGSFFLYSKLTVDKSRWQQGNVFSCSVMHEALHNHYTQKSLSLSPG
EC50 (read off the curve); hybrid PD-1/PD-L1 reporter gene assay, delta RLU, PD-1+ Jurkat T cells with SNU-620 cells, top right graph (CD3 on T cells [2]): ~0.05 nM

B4: v38424 (other)
heavy 1: EVQLVESGGGLVQPGGSLRLSCAASGVTFNYYGMSWIRQAPGKGLEWVASITSSGGRIYYPDSVKGRFTISRENTQKTLYLQMNSLRAEDTAVYYCTLDGRDGWVAYWGQGTLVTVSSASTKGPSVFPLAPSSKSTSGGTAALGCLVKDYFPEPVTVSWNSGALTSGVHTFPAVLQSSGLYSLSSVVTVPSSSLGTQTYICNVNHKPSNTKVDKKVEPKSCDKTHTCPPCPAPEAAGGPSVFLFPPKPKDTLMISRTPEVTCVVVSVSHEDPEVKFNWYVDGVEVHNAKTKPREEQYNSTYRVVSVLTVLHQDWLNGKEYKCKVSNKALPAPIEKTISKAKGQPREPQVYVYPPSRDELTKNQVSLTCLVKGFYPSDIAVEWESNGQPENNYKTTPPVLDSDGSFALVSKLTVDKSRWQQGNVFSCSVMHEALHNHYTQKSLSLSPGGGGGSGDRPWNPPTFSPALLVVTEGDNATFTCSFSNTSESFVLNWYRMSPSNQTDALAAFPEDRSQPGQDARFRVTQLPNGRDFHMSVVRARRNDSGTYLCGAASLAPKAQIKESLRAELRVTE
light: B2 light chain (L1)
heavy 2: QVQLVESGGGLVQPGGSLRLSCSVSGIDLSSNPMIWVRQAPGKGLQYIGIIDTDGSTYYADWAKGRFTISKDSTTVYLQINSPRAEDTAVYYCARRLHGSSNGYYDDLWGQGTLVTVSSGGGGSGGGGSGGGGSGGGGSDGQMTQSPSSVSASVGDRVTITCQASQSIYSYLSWYQQKPGQRPKLLIYKASTLASGVPSRFSGSGSGTDFTLTISSVQPEDFATYYCQQGYTVTNVDKNTFGGGTKVEIKAAEPKSSDKTHTCPPCPAPEAAGGPSVFLFPPKPKDTLMISRTPEVTCVVVSVSHEDPEVKFNWYVDGVEVHNAKTKPREEQYNSTYRVVSVLTVLHQDWLNGKEYKCKVSNKALPAPIEKTISKAKGQPREPQVYVLPPSRDELTKNQVSLLCLVKGFYPSDIAVEWESNGQPENNYLTWPPVLDSDGSFFLYSKLTVDKSRWQQGNVFSCSVMHEALHNHYTQKSLSLSPG
notes: CD3 Fab x Cldn18.2 scFv Fc, attenuated (KO) PD-1 attached to HC1 (C-term)
Kd (Human CD3 (recombinant)): 37 nM
binding result (Human PD-L1): no binding

B5: v38426 (other)
heavy 1: B2 heavy chain 1 (H1)
light: NPPTFSPALLVVTEGDNATFTCSFSNTSESFVLNWYRMSPSNQTDALAAFPEDRSQPGQDARFRVTQLPNGRDFHMSVVRARRNDSGTYLCGAASLAPKAQIKESLRAELRVTEGGGGSGNFMLTQPHSVSESPGKTVTISCKRNTGNIGSNYVNWYQQHEGSSPTTIIYRNDKRPDGVSDRFSGSIDRSSKSASLTISNLKTEDEADYFCQSYSSGFIFGGGTKLTVLGQPKAAPSVTLFPPSSEELQANKATLVCLISDFYPGAVTVAWKADSSPVKAGVETTTPSKQSNNKYAASSYLSLTPEQWKSHRSYSCQVTHEGSTVEKTVAPTECS
heavy 2: B4 heavy 2
notes: CD3 Fab with C-term Cldn18.2 scFv x Cldn18.2 scFv Fc with attenuated (KO) PD-1 attached to CD3 LC (N-term)
Kd (Human CD3 (recombinant)): 77 nM
binding result (Human PD-L1): no binding

The remaining lines, values ahead:

EC50 (read off the curve); hybrid PD-1/PD-L1 reporter gene assay, delta RLU, PD-1+ Jurkat T cells with SNU-620 cells, bottom right graph (CD3 on T cells [1]): ~0.05 nM
EC50 (read off the curve); hybrid PD-1/PD-L1 reporter gene assay, delta RLU, PD-1+ Jurkat T cells with SNU-620 cells, bottom right graph; v39009 varied in the presence of atezolizumab (CD3 on T cells [1]): ~0.04 nM
B1: v39009 (bispecific) (other)
heavy chain 1 (H1): B2 heavy chain 1 (H1)
light chain (L1): NFMLTQPHSVSESPGKTVTISCKRNTGNIGSNYVNWYQQHEGSSPTTIIYRNDKRPDGVSDRFSGSIDRSSKSASLTISNLKTEDEADYFCQSYSSGFIFGGGTKLTVLGQPKAAPSVTLFPPSSEELQANKATLVCLISDFYPGAVTVAWKADSSPVKAGVETTTPSKQSNNKYAASSYLSLTPEQWKSHRSYSCQVTHEGSTVEKTVAPTECSGGGGSGDRPWNPPTFSPALLVVTEGDNATFTCSFSNTSESFVLNWYRMSPSNQTDALAAFPEDRSQPGQDARFRVTQLPNGRDFHMSVVRARRNDSGTYLCGAASLAPKAQIKESLRAELRVTE
heavy chain 2 (H2): B4 heavy 2

EC50 (read off the curve); hybrid PD-1/PD-L1 reporter gene assay, delta RLU, PD-1+ Jurkat T cells with SNU-620 cells, bottom graph (CD3 on T cells [2]): ~0.05 nM
B3: v39005 (bispecific) (other)
heavy chain 1 (H1): B2 heavy chain 1 (H1)
light chain (L1): B2 light chain (L1)
heavy chain 2 (H2): QVQLVESGGGLVQPGGSLRLSCSVSGIDLSSNPMIWVRQAPGKGLQYIGIIDTDGSTYYADWAKGRFTISKDSTTVYLQINSPRAEDTAVYYCARRLHGSSNGYYDDLWGQGTLVTVSSGGGGSGGGGSGGGGSGGGGSDGQMTQSPSSVSASVGDRVTITCQASQSIYSYLSWYQQKPGQRPKLLIYKASTLASGVPSRFSGSGSGTDFTLTISSVQPEDFATYYCQQGYTVTNVDKNTFGGGTKVEIKAAEPKSSDKTHTCPPCPAPEAAGGPSVFLFPPKPKDTLMISRTPEVTCVVVSVSHEDPEVKFNWYVDGVEVHNAKTKPREEQYNSTYRVVSVLTVLHQDWLNGKEYKCKVSNKALPAPIEKTISKAKGQPREPQVYVLPPSRDELTKNQVSLLCLVKGFYPSDIAVEWESNGQPENNYLTWPPVLDSDGSFFLYSKLTVDKSRWQQGNVFSCSVMHEALHNHYTQKSLSLSPGGGGGSGDRPWNPPTFSPALLVVTEGDNATFTCSFSNTSESFVLNWYRMSPSNQTDALAAFPEDRSQPGQDARFRVTQLPNGRDFHMSVVRARRNDSGTYLCGAASLAPKAQIKESLRAELRVTE
